Test results published in US20250269018A1, “COMBINED CANCER THERAPY WITH AN EPITHELIAL CELL ADHESION MOLECULE (EPCAM) INHIBITOR AND A HEPATOCYTE GROWTH FACTOR RECEPTOR (HGFR) INHIBITOR” (ACADEMIA SINICA, priority 2021, published 2025).

B7: EpCAM-V5 (full length, expressed in HEK293T cells) (other)
chain: QEECVCENYKLAVNCFVNNNRQCQCTSVGAQNTVICSKLAAKCLVMKAEMNGSKLGRRAKPEGALQNNDGLYDPDCDESGLFKAKQCNGTSMCWCVNTAGVRRTDKDTEITCSERVRTYWIIIELKHKAREKPYDSKSLRTALQKEITTRYQLDPKFITSILYENNVITIDLVQNSSQKTQNDVDIADVAYYFEKDVKGESLFHSKKMDLTVNGEQLDLDPGQTLIYYVDEKAPEFSMQGLKAGVIAVIVVVVIAVVAGIVVLVISRKKRMAKYEKAEIKEMGEMHRELNA
notes: also called exogenous EpCAM; not shown: V5 tag
B9: EpEX-His (extracellular domain of EpCAM, His-tagged) (ligand)
chain: QEECVCENYKLAVNCFVNNNRQCQCTSVGAQNTVICSKLAAKCLVMKAEMNGSKLGRRAKPEGALQNNDGLYDPDCDESGLFKAKQCNGTSMCWCVNTAGVRRTDKDTEITCSERVRTYWIIIELKHKAREKPYDSKSLRTALQKEITTRYQLDPKFITSILYENNVITIDLVQNSSQKTQNDVDIADVAYYFEKDVKGESLFHSKKMDLTVNGEQLDLDPGQTLIYYVDEKAPEFSMQGLK
notes: It was made in Expi293 cells and purified on Ni-NTA; also called soluble EpEX; secreted EpEX; not shown: His tag

What was measured:
[1] = molecular target: T1, HGFRECD-c-Myc (extracellular domain of HGFR with c-Myc tag, expressed in HEK293T cells) (UniProt P08581 25-932); assay: co-IP with anti-c-Myc from transfected HEK293T cells, Western blotting (FIG. 1G)
T1 construct: extracellular domain; also called HGFRECD-c-Myc-tag; not shown: c-Myc tag
T1 sequence (P08581 25-932): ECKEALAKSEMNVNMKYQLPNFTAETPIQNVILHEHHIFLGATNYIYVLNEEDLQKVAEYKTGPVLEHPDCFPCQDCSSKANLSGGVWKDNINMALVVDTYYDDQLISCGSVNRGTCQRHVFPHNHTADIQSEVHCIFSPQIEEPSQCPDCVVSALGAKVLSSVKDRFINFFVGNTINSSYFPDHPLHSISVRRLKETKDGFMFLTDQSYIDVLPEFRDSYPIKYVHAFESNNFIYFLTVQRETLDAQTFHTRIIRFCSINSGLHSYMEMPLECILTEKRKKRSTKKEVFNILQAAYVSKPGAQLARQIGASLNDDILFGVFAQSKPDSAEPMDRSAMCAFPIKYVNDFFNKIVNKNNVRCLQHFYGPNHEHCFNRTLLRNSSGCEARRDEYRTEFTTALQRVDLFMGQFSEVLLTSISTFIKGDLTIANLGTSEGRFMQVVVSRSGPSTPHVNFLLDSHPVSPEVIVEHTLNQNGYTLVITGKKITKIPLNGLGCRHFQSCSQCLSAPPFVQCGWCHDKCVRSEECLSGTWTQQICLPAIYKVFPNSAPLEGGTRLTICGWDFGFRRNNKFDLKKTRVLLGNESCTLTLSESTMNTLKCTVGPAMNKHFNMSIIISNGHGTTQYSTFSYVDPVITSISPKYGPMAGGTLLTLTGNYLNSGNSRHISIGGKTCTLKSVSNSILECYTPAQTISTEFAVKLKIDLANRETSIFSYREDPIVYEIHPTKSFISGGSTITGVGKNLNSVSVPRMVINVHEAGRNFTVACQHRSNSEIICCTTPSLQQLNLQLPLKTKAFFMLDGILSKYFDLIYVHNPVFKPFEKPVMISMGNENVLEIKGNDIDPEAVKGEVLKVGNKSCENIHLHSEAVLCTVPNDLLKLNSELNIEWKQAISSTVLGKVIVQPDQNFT

[2] = molecular target: T2, HGFR-His recombinant protein (human, UniProt P08581 25-932); assay: ELISA, HGFR-His added to plates coated with mutant-Fc (1 µg/ml) (FIG. 1H)
T2 construct: extracellular domain; also called HGFRECD-His recombinant protein; not shown: His tag
T2 sequence (P08581 25-932): as above

[3] = molecular target: B9; assay: ELISA on coated EpEX-His (1 µg/ml) (FIG. 7A)
[4] = molecular target: B9; assay: ELISA on coated EpEX-His (1 µg/ml) (title of the legend, FIG. 7A)
[5] = molecular target: T3, EpCAM wild-type (expressed in HEK293T cells, FIG. 8D-8G) (human, UniProt P16422 24-314); assay: immunofluorescence, flow cytometry and cellular ELISA on transfected HEK293T cells (FIG. 8E-8G)
T3 sequence: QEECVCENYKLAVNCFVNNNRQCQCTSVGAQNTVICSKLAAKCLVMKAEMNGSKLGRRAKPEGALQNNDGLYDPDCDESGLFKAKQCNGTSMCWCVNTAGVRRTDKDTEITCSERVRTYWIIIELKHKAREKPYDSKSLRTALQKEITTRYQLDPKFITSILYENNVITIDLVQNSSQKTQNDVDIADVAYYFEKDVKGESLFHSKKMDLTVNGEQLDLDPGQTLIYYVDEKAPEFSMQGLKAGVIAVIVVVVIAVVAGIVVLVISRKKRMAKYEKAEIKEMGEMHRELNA

[6] = molecular target: B7; assay: Western blotting, flow cytometry and immunofluorescence on transfected HEK293T cells (title of the legend, FIG. 8A-8C)
EpEX-His = molecular target: T4, EpEX-His (Homo sapiens, UniProt P16422); assay: ELISA binding to coated EpEX-His; conditions: EpEX-His 1 μg/ml coated; ELISA OD450; FIG. 7A
T4 construct: the soluble extracellular domain of EpCAM (EpEX); His; made in house; host or cells: Expi293
T4 sequence (P16422 24-265 limits assumed): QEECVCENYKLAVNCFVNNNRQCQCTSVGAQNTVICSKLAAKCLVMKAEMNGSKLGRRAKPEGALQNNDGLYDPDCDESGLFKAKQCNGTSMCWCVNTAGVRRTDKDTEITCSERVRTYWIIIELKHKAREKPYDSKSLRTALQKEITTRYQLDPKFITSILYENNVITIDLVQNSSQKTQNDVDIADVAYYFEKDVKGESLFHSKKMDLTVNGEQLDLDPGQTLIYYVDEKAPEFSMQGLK
Method: FIGS. 7A to 7G. EpAb2-6 binds EpEX and induces apoptosis by F(ab′)2 and inhibits regulated intramembrane proteolysis (RIP) activation and HGFR signaling. (FIG. 7A) Binding affinity of IgG EpAb2-6 (mouse) and F(ab′)2 to EpEX-His (1 μg/ml) coated overnight was checked using ELISA (OD450). (FIG. 7B) HCT116 cells were treated with 100 μg/ml control IgG, Fc, or F(ab′)2 of EpAb2-6 for 24 h. The apoptotic and necrotic cells were quantified by fluorescein annexin V-FITC/PI double labeling. (FIG. 7C) HCT116 and HT29 cells were treated with 10 μg/ml control IgG, MT201, humanized EpAb2-6 (hEpAb2-6) or mouse hybridoma EbAb2-6 (mEpAb2-6) for 24 h. The apoptotic and necrotic cells were quantified by fluorescein annexin V-FITC/PI double labeling. (FIG. 7D) HCT116 cells were treated with 10 μg/ml control IgG, MT201, hEpAb2-6 or mEpAb2-6 for 16 h, followed by treatment with EpEX-His (50 nM) for 15 min. Levels of phosphorylated HGFR, AKT, and ERK, and (FIG. 7E) RIP proteins ADAM17 and presenilin 2 were examined by Western blotting. Anti-EpCAM antibody and crizotinib coordinately induces apoptosis in colon cancer cells. (FIG. 7F) HCT116 and HT29 cells were treated with 10 μg/ml NMIgG or EpAb2-6 and 4 μM HGFR inhibitor crizotinib for 24 h. The apoptotic and necrotic cells were quantified by fluorescein annexin V-FITC/PI double labeling. […] Cell invasion was assessed by a Transwell assay with matrigel after 24 h.

HCT116 cells = assay: Apoptosis assay, annexin V-FITC/PI double labeling, HCT116; assay type: cell-based, human; conditions: 100 μg/ml 24 h, FIG. 7B
Method: FIGS. 7A to 7G. EpAb2-6 binds EpEX and induces apoptosis by F(ab′)2 and inhibits regulated intramembrane proteolysis (RIP) activation and HGFR signaling. (FIG. 7A) Binding affinity of IgG EpAb2-6 (mouse) and F(ab′)2 to EpEX-His (1 μg/ml) coated overnight was checked using ELISA (OD450). (FIG. 7B) HCT116 cells were treated with 100 μg/ml control IgG, Fc, or F(ab′)2 of EpAb2-6 for 24 h. The apoptotic and necrotic cells were quantified by fluorescein annexin V-FITC/PI double labeling. (FIG. 7C) HCT116 and HT29 cells were treated with 10 μg/ml control IgG, MT201, humanized EpAb2-6 (hEpAb2-6) or mouse hybridoma EbAb2-6 (mEpAb2-6) for 24 h. The apoptotic and necrotic cells were quantified by fluorescein annexin V-FITC/PI double labeling. (FIG. 7D) HCT116 cells were treated with 10 μg/ml control IgG, MT201, hEpAb2-6 or mEpAb2-6 for 16 h, followed by treatment with EpEX-His (50 nM) for 15 min. Levels of phosphorylated HGFR, AKT, and ERK, and (FIG. 7E) RIP proteins ADAM17 and presenilin 2 were examined by Western blotting. Anti-EpCAM antibody and crizotinib coordinately induces apoptosis in colon cancer cells. (FIG. 7F) HCT116 and HT29 cells were treated with 10 μg/ml NMIgG or EpAb2-6 and 4 μM HGFR inhibitor crizotinib for 24 h. The apoptotic and necrotic cells were quantified by fluorescein annexin V-FITC/PI double labeling. (FIG. 7G) HCT116 and HT29 cells were treated with 10 μg/ml NMIgG or EpAb2-6 and 10 μM HGFR inhibitor crizotinib. Cell invasion was assessed by a Transwell assay with matrigel after 24 h.
Cells were seeded and treated with 10 μg/ml mAb or inhibitor for 6 h; an unrelated mouse myeloma immunoglobulin used at appropriate dilution served as the IgG2a (Invitrogen #02-6200) isotype control. Apoptotic cells were detected using Annexin V-FITC and PI, and were analyzed using a flow cytometer (BD Immmunocytometry Systems). Early apoptosis was measured with the Annexin V-FITC Apoptosis Detection kit II (BD Pharmingen). Late apoptotic nuclei were detected with propidium iodide (PI) staining.

[7] = molecular target: T5, endogenous HGFR (HCT116 and HT29 cells) (human, UniProt P08581 25-1390); assay: co-IP of endogenous proteins after DTSSP cross-linking, HCT116 and HT29 cells (FIG. 1A)
T5 construct: whole, on cells; also called c-MET; hepatocyte growth factor receptor
T5 sequence (P08581 25-1390): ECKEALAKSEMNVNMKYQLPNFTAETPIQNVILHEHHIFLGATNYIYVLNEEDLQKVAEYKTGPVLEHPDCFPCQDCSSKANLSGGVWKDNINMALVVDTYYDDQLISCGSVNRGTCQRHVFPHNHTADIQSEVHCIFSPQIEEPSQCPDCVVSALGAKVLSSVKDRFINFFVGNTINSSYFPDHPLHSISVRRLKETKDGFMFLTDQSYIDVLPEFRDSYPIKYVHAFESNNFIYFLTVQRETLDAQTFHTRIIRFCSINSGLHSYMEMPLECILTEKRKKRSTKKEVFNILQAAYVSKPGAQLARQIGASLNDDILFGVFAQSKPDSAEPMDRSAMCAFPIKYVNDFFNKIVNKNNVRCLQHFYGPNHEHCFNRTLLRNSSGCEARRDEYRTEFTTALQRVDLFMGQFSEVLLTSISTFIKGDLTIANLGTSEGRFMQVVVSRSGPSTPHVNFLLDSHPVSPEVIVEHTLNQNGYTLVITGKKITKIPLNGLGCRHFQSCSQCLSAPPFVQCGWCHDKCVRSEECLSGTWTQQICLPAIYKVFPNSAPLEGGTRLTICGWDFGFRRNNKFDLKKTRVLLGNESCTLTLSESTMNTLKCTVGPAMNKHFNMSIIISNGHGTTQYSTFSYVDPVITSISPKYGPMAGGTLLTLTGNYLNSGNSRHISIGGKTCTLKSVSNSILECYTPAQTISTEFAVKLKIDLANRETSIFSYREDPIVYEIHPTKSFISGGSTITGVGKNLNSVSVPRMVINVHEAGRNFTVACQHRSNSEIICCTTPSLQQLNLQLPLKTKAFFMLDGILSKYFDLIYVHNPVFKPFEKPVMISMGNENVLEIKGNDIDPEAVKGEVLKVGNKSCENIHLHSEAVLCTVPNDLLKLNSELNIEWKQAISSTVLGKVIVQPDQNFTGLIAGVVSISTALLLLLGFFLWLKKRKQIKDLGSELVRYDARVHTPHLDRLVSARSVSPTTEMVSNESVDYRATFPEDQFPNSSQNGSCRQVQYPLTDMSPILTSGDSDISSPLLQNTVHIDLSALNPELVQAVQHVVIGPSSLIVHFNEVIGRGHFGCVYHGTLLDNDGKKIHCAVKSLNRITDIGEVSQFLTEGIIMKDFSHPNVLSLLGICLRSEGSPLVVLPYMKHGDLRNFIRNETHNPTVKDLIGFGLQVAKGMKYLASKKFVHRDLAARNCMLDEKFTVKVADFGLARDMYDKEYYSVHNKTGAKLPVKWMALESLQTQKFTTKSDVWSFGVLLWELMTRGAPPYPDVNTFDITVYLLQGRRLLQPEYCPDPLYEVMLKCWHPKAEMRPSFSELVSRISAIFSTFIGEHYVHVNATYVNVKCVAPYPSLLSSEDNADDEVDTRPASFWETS

[8] = molecular target: T1, HGFRECD-c-Myc (extracellular domain of …); assay: co-IP from HEK293T cells overexpressing EpCAM-V5 and HGFRECD-c-Myc (FIG. 1B)
[9] = molecular target: T2, HGFR-His recombinant protein; assay: ELISA, HGFR-His (2 µg/ml) on coated EpEX-Fc proteins (1 µg/ml) (FIG. 1H)
[10] = molecular target: T1, HGFRECD-c-Myc (extracellular domain of …); assay: co-IP from transfected HEK293T cells (restated)
HGFR-Fc protein = molecular target: T6, HGFR-Fc protein (human, UniProt P08581 25-932); assay: ELISA, EpEX-His (2 µg/ml) on coated HGFR-Fc (1 µg/ml) (FIG. 6F)
T6 construct: not shown: Fc
T6 sequence (P08581 25-932): as the sequence (P08581 25-932) above

[11] = molecular target: T1, HGFRECD-c-Myc (extracellular domain of …); assay: co-IP from transfected HEK293T cells, Western blotting (FIG. 1F)

B1: EpEXΔEGFI+II-His (ligand)
chain: QEESKLAAKSERVRTYWIIIELKHKAREKPYDSKSLRTALQKEITTRYQLDPKFITSILYENNVITIDLVQNSSQKTQNDVDIADVAYYFEKDVKGESLFHSKKMDLTVNGEQLDLDPGQTLIYYVDEKAPEFSMQGLK
notes: EpEX lacking aa 27-59 and 66-135; also called EGF like-domain deletion mutant EpEX-His; soluble EpEX mutant protein; not shown: His tag
Does B1 bind [1]?
Result: no binding

B2: EpEXΔEGFI+II-Fc (Fc fusion)
chain: QEESKLAAKSERVRTYWIIIELKHKAREKPYDSKSLRTALQKEITTRYQLDPKFITSILYENNVITIDLVQNSSQKTQNDVDIADVAYYFEKDVKGESLFHSKKMDLTVNGEQLDLDPGQTLIYYVDEKAPEFSMQGLK
notes: EpEX lacking aa 27-59 and 66-135, coated on ELISA plates at 1 µg/ml; also called EpEXΔEGFI+II mutant protein; EGF like-domain deletion mutant-Fc; not shown: Fc
Does B2 bind [2]?
Result: no binding (tested: 2 µg/ml)

B3: F(ab′)2 of EpAb2-6 (antibody, V domains shown)
VH: VKLQESGPELKKPGETVKISCKASGYTFTDYSMHWVKQAPGKGLKWMGWINTETGEPTYADDFKGRFAFSLETSASTAYLQINNLKNEDTATYFCARTAVYWGQGTTVTVSS
VL: DIQMTQSPSSLSASLGERVSLTCRASQEISVSLSWLQQEPDGTIKRLIYATSTLDSGVPKRFSGSRSGSDYSLTISSLESEDFVDYYCLQYASYPWTFGGGTKLEIKR
notes: F(ab′)2 fragment of mouse EpAb2-6; also called divalent antibody fragments F(ab′)2 of EpAb2-6
Does B3 bind [3]?
Result: binds

B4: EpAb2-6 (mouse monoclonal IgG) (antibody, V domains shown)
VH: VKLQESGPELKKPGETVKISCKASGYTFTDYSMHWVKQAPGKGLKWMGWINTETGEPTYADDFKGRFAFSLETSASTAYLQINNLKNEDTATYFCARTAVYWGQGTTVTVSS
VL: DIQMTQSPSSLSASLGERVSLTCRASQEISVSLSWLQQEPDGTIKRLIYATSTLDSGVPKRFSGSRSGSDYSLTISSLESEDFVDYYCLQYASYPWTFGGGTKLEIKR
notes: Mouse hybridoma IgG; also called mouse EpAb2-6; mEpAb2-6
Does B4 bind [4]?
Result: binds

Does B4 bind [5]?
Result: binds

Does B4 bind [6]?
Result: binds

B5: F(ab′)2 of EpAb2-6: divalent antibody fragments F(ab′)2 of EpAb2-6 (antibody, V domains shown)
VH: VKLQESGPELKKPGETVKISCKASGYTFTDYSMHWVKQAPGKGLKWMGWINTETGEPTYADDFKGRFAFSLETSASTAYLQINNLKNEDTATYFCARTAVYWGQGTTVTVSS
VL: DIQMTQSPSSLSASLGERVSLTCRASQEISVSLSWLQQEPDGTIKRLIYATSTLDSGVPKRFSGSRSGSDYSLTISSLESEDFVDYYCLQYASYPWTFGGGTKLEIKRADAAPTVS
B5 was tested. Which “binding to EpEX” value (EpEX-His) did it give?
Its value is “bind to EpEX”.

What about the apoptosis (HCT116 cells) of the same molecule?
Its apoptosis is “induce apoptosis in colon cancer cells”.

B6: endogenous EpCAM (HCT116 and HT29 cells) (other)
chain: QEECVCENYKLAVNCFVNNNRQCQCTSVGAQNTVICSKLAAKCLVMKAEMNGSKLGRRAKPEGALQNNDGLYDPDCDESGLFKAKQCNGTSMCWCVNTAGVRRTDKDTEITCSERVRTYWIIIELKHKAREKPYDSKSLRTALQKEITTRYQLDPKFITSILYENNVITIDLVQNSSQKTQNDVDIADVAYYFEKDVKGESLFHSKKMDLTVNGEQLDLDPGQTLIYYVDEKAPEFSMQGLKAGVIAVIVVVVIAVVAGIVVLVISRKKRMAKYEKAEIKEMGEMHRELNA
notes: Endogenous protein of human colon cancer cell lines, immunoprecipitated from lysates; also called epithelial cell adhesion molecule
Does B6 bind [7]?
Result: binds

Does B7 bind [8]?
Result: binds

B8: EpEX-Fc (Fc fusion)
chain: QEECVCENYKLAVNCFVNNNRQCQCTSVGAQNTVICSKLAAKCLVMKAEMNGSKLGRRAKPEGALQNNDGLYDPDCDESGLFKAKQCNGTSMCWCVNTAGVRRTDKDTEITCSERVRTYWIIIELKHKAREKPYDSKSLRTALQKEITTRYQLDPKFITSILYENNVITIDLVQNSSQKTQNDVDIADVAYYFEKDVKGESLFHSKKMDLTVNGEQLDLDPGQTLIYYVDEKAPEFSMQGLK
notes: also called recombinant EpEX-Fc; not shown: Fc
Does B8 bind [9]?
Result: binds

Does B9 bind [10]?
Result: binds

Does B9 bind (HGFR-Fc protein)?
Result: binds

B10: EpCAMΔEGFI+II-V5 (other)
chain: QEESKLAAKSERVRTYWIIIELKHKAREKPYDSKSLRTALQKEITTRYQLDPKFITSILYENNVITIDLVQNSSQKTQNDVDIADVAYYFEKDVKGESLFHSKKMDLTVNGEQLDLDPGQTLIYYVDEKAPEFSMQGLKAGVIAVIVVVVIAVVAGIVVLVISRKKRMAKYEKAEIKEMGEMHRELNA
notes: also called both domain-deleted mutants; not shown: V5 tag
Does B10 bind [11]?
Result: no binding
